Results on 3 substances are retold here after article PMC3422313.

For test [1], the target named is p24:V3 WT chimera (HIV p24 CA protein with the full V3 loop in place of the cyclophillin binding loop) (HIV) (UniProt P12493). In words: SEC; Superdex-200 PC; 30 mM Tris pH 8.0, 300 mM NaCl, 2 mM bME; 0.04 mL/min; compared with aldolase (158 kDa) and ferritin (440 kDa). A general note: Size exclusion chromatography separates by hydrodynamic size, large species first.

Test [2] concerns the target human monoclonal anti-V3 antibody 447-52D (ARP3219) (human). In words: SPR; BIAcore 3000; mAb 447-52D immobilised on CM5 by EDC/NHS (about 2000 RU); p24:V3 proteins as analyte 0.10-4.0 uM; HBS (10 mM Hepes, 150 mM NaCl, 3 mM EDTA, pH 7.4), 0.1 mM TCEP; 20 ul/min; 25 C; 1:1 Langmuir fit. In general terms: SPR reads the build-up and loss of mass on a sensor chip optically.

Test [3] deals with p24:V3 CC mutant (chimeric p24:V3 protein with A14C/E45C in the p24 sequence) (HIV) (UniProt P12493). In words: cross-linking; disulfide cross-linking by dialysis into assembly buffer (50 mM Tris pH 8, 1 M NaCl) with beta ME reduced to 20 mM or lower; read by non-reducing SDS-PAGE, 10% gel.
In test [4] the target is p24:V3 CCAA mutant (chimeric p24:V3 protein with A14C/E45C/W184A/M185A in the p24 sequence) (HIV). In words: SEC; Superdex-200 PC; 30 mM Tris pH 8.0, 300 mM NaCl, 2 mM bME; 0.04 mL/min; compared with aldolase (158 kDa) and ferritin (440 kDa).
For test [5] the target is unchanged. In words: cross-linking; disulfide cross-linking by dialysis into assembly buffer (50 mM Tris pH 8, 1 M NaCl) with beta ME reduced to 20 mM or lower; read by non-reducing SDS-PAGE, 10% gel.

pKd: −log10 of the molar value.

human monoclonal anti-V3 antibody 447-52D (ARP3219) (human), sequence (heavy, as listed by the source, chain 1 of 2): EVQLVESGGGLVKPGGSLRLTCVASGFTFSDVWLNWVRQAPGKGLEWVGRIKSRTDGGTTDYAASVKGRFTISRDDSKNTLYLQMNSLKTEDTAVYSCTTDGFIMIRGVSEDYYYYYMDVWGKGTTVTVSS
human monoclonal anti-V3 antibody 447-52D (ARP3219) (human), sequence (light, as listed by the source, chain 2 of 2): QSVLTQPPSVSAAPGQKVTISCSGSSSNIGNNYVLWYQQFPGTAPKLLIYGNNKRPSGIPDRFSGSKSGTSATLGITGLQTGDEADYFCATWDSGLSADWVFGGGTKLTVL

On to “p24:V3 WT chimera (HIV p24 CA protein with the full V3 loop in place of the cyclophillin binding loop) (from UniProt P12493 1-85; P12493 101-500)”, for which the stoichiometry N (commonly the number of molecules, sites or subunits per partner or assembly) in test [1] turned out to be 6. Further, the negative-log Kd (pKd) (as a rule, the negative decadic logarithm of the Kd, by convention in mol/L) in test [2] was 5.00.

As to “p24:V3 CC mutant (chimeric p24:V3 protein with A14C/E45C in the p24 sequence) (from UniProt P12493 101-500)”, the stoichiometry N in test [3] came out at 6. Moreover, the pKd in test [2] is 4.87.

For the substance “p24:V3 CCAA mutant (chimeric p24:V3 protein with A14C/E45C/W184A/M185A in the p24 sequence)”, the stoichiometry N in test [4] and in test [5] was 6 each time.
